{
  "source": "paper PMC9399999",
  "about": "(Nature Communications, 2022)",
  "target": "Omicron RBD (SARS-CoV-2 Omicron BA.1 (B.1.1.529), S371L | S373P | S375F | K417N | G446S | S477N | E484A | Q493R | G496S | Q498R | …)",
  "assay": "SPR",
  "conditions": "both partners purified",
  "data": [
    {"binder": "S304 antibody (IgG1) (antibody, V domains shown, IgG1) VH: EVQLVESGGGLVQPGGSLRLSCAASGFTFSSYDMHWVRQTTGKGLEWVSTIGTAGDTYYPDSVKGRFTISREDAKNSLYLQMNSLRAGDTAVYYCARGDSSGYYYYFDYWGQGTLLTVSS VL: DIQMTQSPSSLSAAVGDRVTITCRASQSIGSYLNWYQQKPGKAPKLLIYAASSLQSGVPSRFSGSGSGTDFTLTISSLQPEDFAIYYCQQSYVSPTYTFGPGTKVDIK", "values": [
      {"measurement": "Kd", "value": 1.01, "unit": "nM"}
    ]}
  ]
}
